Test results from article PMC3182218, “Obesity Risk Gene TMEM18 Encodes a Sequence-Specific DNA-Binding Protein”.

B1: biotin-(GTG)8 (dsDNA)
DNA 1: GTGGTGGTGGTGGTGGTGGTGGTG
DNA 2: CACCACCACCACCACCACCACCAC
B2: biotin-(GCT)8 (dsDNA)
DNA 1: GCTGCTGCTGCTGCTGCTGCTGCT
DNA 2: AGCAGCAGCAGCAGCAGCAGCAGC

Molecular target: TMEM18 (UniProt Q96B42 1-140)
Test: EMSA; 400 nM probe; EMSA: 10 mM Tris pH 7.4, 50 mM KCl, 1 mM DTT, 0.05% DDM, 30 min, RT; 4-20% TBE gel in 0.5x TBE
Details: protein: recombinant, tags: N-terminal Flag-His8, blunt

Chain of TMEM18 (Q96B42 whole entry): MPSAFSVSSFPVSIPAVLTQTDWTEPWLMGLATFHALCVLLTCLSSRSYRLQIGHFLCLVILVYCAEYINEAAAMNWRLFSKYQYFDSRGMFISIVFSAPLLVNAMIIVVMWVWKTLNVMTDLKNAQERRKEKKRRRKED

Binder	binding result (label: 5' biotin on (GTG)8 strand)	binding result (label: 5' biotin on (GCT)8 strand)
B1	no binding	
B2		binds
